The results in this text go back to patent US20070243191A1, “ANTI-HYPERPROLIFERATIVE THERAPIES TARGETING HDGF” (THE BOARD OF REGENTS OF THE UNIVERSITY OF TEXAS SYSTEM, priority 2005, published 2007).

Data set [1] concerns A549 xenograft. Description: A549 xenograft model, H3 in combination with gemcitabine and Avastin. The format is in vivo, mouse. Particulars: single agents and combinations. On the procedure: To determine potential synergistic effects of combining the antibodies with other cancer therapeutic agents, the H3 antibody was tested in combination with gemcitabine, a commonly used chemotherapeutic agent, and Avastin®, a FDA approved VEGF neutralizing monoclonal antibody, in the A549 xenograft model. At day 7 after tumor cell inoculation subcutaneously, the animals were randomized into one of the 8 groups: […] (6 mice), gemcitabine (5 mice), H3 (7 mice), Avastin® (5 mice), H3+gemcitabine (5 mice), 113+Avastin® (5 mice), Avastin®+gemcitabin (5 mice), and H3+ gemcitabine+Avastin® (7 mice). In this experiment, all the agents were given IP at day 7 and every 3 days thereafter for total 5 injections. H3 was given 250 μg per mouse/injection without boost at first injection; gemcitabine was given in a dose of 80 mg/kg/injection; and Avastin® was given 100 μg per mouse/injection.

Another data set concerns tumor microvessels. Description: CD31 staining of microvessels in treated A549 xenograft tumors. Type of data set: in vivo, mouse. The text has this:
In order to directly study the antiangiogenic action of anti-HDGF antibodies, the xenograph tumors treated with the various agents and presented in the foregoing example (see FIG. 8) were studied following CD31 staining. CD31 antibody staining is generally regarded as a convenient means of visualizing microvessels in order to assess angiogenesis and anti-angiogenic action. Each of the tumors treated as described with respect to FIG. 8 were subjected to CD31 staining.

In data set [2] the target is T1, human hepatoma-derived growth factor (HDGF) (human, UniProt P51858 1-240).
T1 construct: In most assays the endogenous protein of human cancer cell lines or tissues (lysates for immunoprecipitation, denatured on Western blots); also called native HDGF; recombinant HDGF
T1 sequence (P51858 whole entry): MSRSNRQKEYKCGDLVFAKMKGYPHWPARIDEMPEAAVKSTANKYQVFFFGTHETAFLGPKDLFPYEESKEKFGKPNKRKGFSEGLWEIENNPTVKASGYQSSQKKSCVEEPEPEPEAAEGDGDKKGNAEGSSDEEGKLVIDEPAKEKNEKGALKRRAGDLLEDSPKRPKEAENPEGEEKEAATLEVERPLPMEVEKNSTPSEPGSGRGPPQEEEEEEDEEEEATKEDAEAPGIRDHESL
Description: sandwich ELISA, 40 ng C1 coated per well as capture antibody.

The next data set concerns H460 xenograft. Description: H460 xenograft model. Type of data set: in vivo, mouse.
Data set [3] concerns A549 xenograft. Description: A549 xenograft model, individual monoclonal antibodies. Type of data set: in vivo, mouse. Particulars: for average tumor weights: 500 μg boost then 250 μg every three days x4 i.p., day 22, PBS 784±458; for tumor growth inhibition vs PBS and M31 controls: A549 xenograft, individual antibodies. The text has this:
To determine an anti-tumor effect of individual monoclonal antibodies, the CELLine™ system (BD Biosciences) was used to generate the amount of antibodies for each clone sufficient for our animal experiments. In our second experiment, we tested four individual monoclonal antibodies (H3, C1, C4, and L5-9) and used PBS and M31, an IgG1 antibody without known antigen, as controls. Cell inoculation was similar to the experiment described above, 7 days after subcutaneous injection of A549 cells, the animals with established tumors were randomized into one of the 6 groups. Besides PBS group, which was given 200 μl PBS every IP injection, all the other groups were given a 500 μg of individual antibody as boost dose followed by 250 μg/injection every three days for four times. Tumor sizes were measured every three days. All the animals were sacrificed at day 22 after tumor cell inoculation.

Data set [4] deals with native HDGF (Homo sapiens, UniProt P51858). As to the kind of experiment: Binding to native HDGF (immunoprecipitation, clone selection). From the text:
Thus, to develop a useful therapeutic that could affect tumor control, it was deemed important to develop high-affinity monoclonal antibodies that had the ability to bind native HDGF. An exemplary approach that was employed by the inventors involved, first, generating full-length recombinant HDGF in bacteria. This bacterially expressed recombinant HDGF was then used the immunize mice to generate mature B cells secreting antibodies specifically recognizing HDGF. After fusing the B cells with myeloma cells and several rounds of screening/selection steps, single clones secreting high-affinity IgGs capable to bind native HDGF were identified. […] Antibodies from these clones were selected and tested using IHC. Similar staining patterns were obtained in a panel of tumor samples among these antibodies and between these antibodies and the previously mentioned polyclonal antibodies, indicating these antibodies recognize HDGF. All of the four monoclonal antibodies are IgG1 and have been adapted to serum-free conditions for scale-up production.

A short description of data set [5]: Antibody distribution after intra-peritoneal injection in tumor-bearing nude mice. Type of data set: in vivo. Particulars: for antibody localization in tumor tissue (anti-mouse IgG staining): tumor tissue sections of treated tumors. On the procedure:
To determine the distribution of the antibodies after intra-peritoneal injection in the animals, we injected fluoresce labeled M31 and H3 antibodies into nude mice and used a scanner to measure the antibody distribution 12 h after injection. […] To determine the antibody distribution in the tumor tissues and to compare the patterns of the distribution in the tumor tissues among the different antibodies, a specific anti-mouse IgG antibody was used to stain tumor tissue sections of tumors treated with different antibodies.

In data set [6] the target is T2, HDGF (Mus musculus, UniProt P51859, A118D).
T2 construct: endogenous in cells; host or cells: putative MiaPaca-2 cells, believed to be M109 murine lung adenocarcinoma
T2 sequence (P51859 whole entry A118D): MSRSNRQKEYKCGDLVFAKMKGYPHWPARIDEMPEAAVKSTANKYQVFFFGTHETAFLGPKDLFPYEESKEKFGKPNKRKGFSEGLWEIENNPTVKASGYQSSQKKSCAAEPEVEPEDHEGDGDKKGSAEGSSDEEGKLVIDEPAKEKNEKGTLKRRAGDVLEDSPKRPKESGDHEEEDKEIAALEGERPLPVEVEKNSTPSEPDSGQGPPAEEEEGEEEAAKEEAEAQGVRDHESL
As to the kind of experiment: Western blot of HDGF in putative MiaPaca-2 cells. The format is binding. Particulars: putative MiaPaca-2 line (murine HDGF). On the procedure:
(§1) The two antibodies were tested using what was believed at the time to be the MiaPaca-2 pancreatic cancer xenograft model. […] This observation led to the use of H3 in the initial combination experiment described above. To determine the expression of HDGF in the cell line, a Western blot analysis was performed using C1 and H3 antibodies. […] To determine HDGF expression levels in pancreatic cancers, 7 additional pancreatic cancer cell lines were analyzed. All the 7 cell lines expressed high-level HDGF recognizable by H3 antibody but not the putative “MiaPaca-2” line.
(§2) An immunoprecipitation assay was then performed using H3 antibody to determine whether the antibody recognizes the native HDGF in the cells, which is important to explain why the antibody had inhibited the tumor growth in the xenograft model. […] Because the protein migrated faster than the HDGF from NSCLC cell lines, the HDGF cDNA from “MiaPaca-2” cells was sequenced. […] The origin of the cell line was traced and is now believed to be M109, a murine lung adenocarcinoma cell line from a mouse spontaneous lung cancer.

In data set [7] the test system is L3.6 pancreatic cancer cells. As to the kind of experiment: L3.6 pancreatic cancer xenograft model. Type of data set: in vivo. Particulars: mice with tumors bigger than 500 mg, one week after treatment. On the procedure:
Anti-HDGF antibodies were tested for a therapeutic effect in a xenograft model using metastatic L3.6 pancreatic cancer cells. After 10 days of tumor cell inoculation, mice were randomly selected into either M31 control antibody treatment, H3 antibody treatment, or C1 antibody treatment. The sizes of the tumors were between 100-200 mg at the time of treatment except three which grown bigger than 500 mg and were assigned to each group. […] This phenomenon is similar to human clinical observations where some established primary lung cancers develop liquidized central part of the tumors after treatment with agents having anti-angiogenic activity such as sorafenib (BAY 43-9006). This is a hallmark feature of anti-angiogenic agents as a class.

The target in data set [8] is T3, native HDGF (Mus musculus, UniProt P51859).
T3 construct: endogenous in cells; host or cells: putative MiaPaca-2 cells, believed to be M109 murine lung adenocarcinoma
T3 sequence (P51859 whole entry): as the sequence (P51859 whole entry A118D) above, with D118A counted along it
As to the kind of experiment: Immunoprecipitation of native HDGF from putative MiaPaca-2 cells. The format is binding. Particulars: putative MiaPaca-2 cells (murine HDGF). On the procedure: as §2

The target of data set [9] is T4, HDGF (Homo sapiens, UniProt P51858).
T4 construct: The antibody sufficiently pulled down over 90% of the cellular HDGF; endogenous in cells; host or cells: H460 NSCLC cells (total cell lysate)
T4 sequence (P51858 whole entry): as the sequence (P51858 whole entry) above
Description: Immunoprecipitation of HDGF from H460 total cell lysates. Type of data set: binding. Particulars: H460 NSCLC total cell lysates. On the procedure: In most studies, HDGF was found localized in nuclear compartment. […] One possibility of the lacking cytoplasmic staining is the common IHC conditions. Alternatively, the protein may be rapidly released from cells making the detection of protein in cytoplasm difficult. Taking advantage of the newly developed monoclonal antibodies, two sets of experiments were performed to determine the subcellular localization of HDGF and the secretion/releasing status of the protein. In one set of experiment, H3 was used for immunoprecipitation (IP) employing total cell lysates from H460 NSCLC cells. The antibody sufficiently pulled down over 90% of the cellular HDGF. Some potential HDGF binding proteins might have also co-precipitated with HDGF. We then extracted cytoplasmic proteins and nuclear proteins separately and performed IP as described above followed by 2-DE protein separation. Although the relative HDGF protein amount was higher in the nuclear than in the cytoplasm with equal amount of protein loading, HDGF was clearly presented in cytoplasm with distinct modification or homologues patterns between the two subcellular compartments. It should be noted that the total amount of cytoplasmic proteins is much higher than the nuclear proteins. Therefore, the absolute amount of HDGF in cytoplasm may actually be similar or even higher to that in nuclear.

A further data set relates to "MiaPaca-2" line (M109). Description: Putative MiaPaca-2 (believed M109 murine lung adenocarcinoma) xenograft model. The format is in vivo, mouse. Particulars: putative MiaPaca-2 (murine M109) model, H3 compared with C1. On the procedure: as §1, §2

Chain of native HDGF (Homo sapiens, UniProt P51858) (P51858 whole entry): as above

On to `Nc1ccn([C@@H]2O[C@H](CO)[C@@H](O)C2(F)F)c(=O)n1` [gemcitabine, reference compound], for which the tumor growth inhibition result in the data set with A549 xenograft [1] is “only modest tumor growth inhibition”. Moreover, the “size of the microvessels in the tumors” value with tumor microvessels is “further increase the size”.
With “Avastin®: FDA approved VEGF neutralizing monoclonal antibody [reference compound]”, the tumor growth inhibition entry with A549 xenograft [1] was “best inhibition”. In addition, the “numbers of microvessels in the tumors” value with tumor microvessels was “substantially reduced numbers of microvessels”.

B1: anti-HDGF monoclonal antibody C1 (antibody, V domains shown)
VH: EVQLVESGGRLVQPKGSLKLSCAASGFTFNTYAMYWIRQAPGKGLEWVARIRSKSYNYATYYADSVKDRFTISRDDSQSMLYLQMNNLKTADTAMYYCVSEGFWGQGTSVTVSS
VL: DVLMTQTPLSLPVSLGDQASISCRSSQSIVHSSGNTYLEWYLQKPGQSPKLLIYKVSNRFSGVPDRFSGSGSGTDFTLKISRVEAEDLGVYYCFQGSHVPWTFGGGTKLEIK
notes: also called HDGF C1-2f; C1 antibody
Consider B1, for which, in data set [2], the binding result was “binds”.

B2: C1: anti-HDGF IgG1 monoclonal antibody; heavy chain SEQ ID NO:32, light chain SEQ ID NO:34 (antibody, V domains shown)
VH: EVQLVESGGRLVQPKGSLKLSCAASGFTFNTYAMYWIRQAPGKGLEWVARIRSKSYNYATYYADSVKDRFTISRDDSQSMLYLQMNNLKTADTAMYYCVSEGFWGQGTSVTVSS
VL: DVLMTQTPLSLPVSLGDQASISCRSSQSIVHSSGNTYLEWYLQKPGQSPKLLIYKVSNRFSGVPDRFSGSGSGTDFTLKISRVEAEDLGVYYCFQGSHVPWTFGGGTKLEIK
modifications: C1 heavy chain aa; C1 light chain aa
In the case of B2, the tumor growth inhibition entry in the data set with H460 xenograft is reported as “effective in inhibiting tumor growth”. Moreover, in the data set with A549 xenograft [3], the average tumor weights turned out to be 224±85; the “tumor growth inhibition vs PBS and M31 controls” value is given as “most significant tumor growth inhibition”. Also, the “binding to native HDGF” value in the data set with native HDGF [4] was “ability to immunoprecipitate HDGF”. The “antibody localization in tumor tissue (anti-mouse IgG staining)” value in data set [5] was “entered into both cytoplasm and nuclear”. The “detection of HDGF on Western blots” value in the data set with HDGF [6] is listed as “did not detect HDGF”. Besides, the “liquidized central part of tumor (hollow effect)” value in data set [7] is “developed liquidized central part”.

B3: H3: anti-HDGF IgG1 monoclonal antibody; heavy chain SEQ ID NO:36, light chain SEQ ID NO:38 (antibody, V domains shown)
VH: QITLKQSGPGIVQPSQPVRLTCTFSGFSLSTSGIGVAWIRQPSGKGLEWLATIWWDDDNRYNPSLKSRLAVSKDTSNNQAFLNIITVETADTAIYYCAQIYDYAVGFAYWGQGTLVTVSA
VL: DIQMTQTTSSLSASLGDRVTISCRASQDISNYLNWYQQKPDGTVKLLIYYTSRLHSGVPSRFSGSGSGTDYSLTISNLEPDDIATYYCQQYGKLWTFGGGTKLEIK
modifications: H3 heavy chain aa; H3 light chain aa
B3: the “binding to native HDGF of the tumor cells” value with native HDGF [8] is listed as “strongly bound”. Also, the tumor growth inhibition entry in the data set with H460 xenograft is recorded as “effective in inhibiting tumor growth”. Further, the tumor growth inhibition entry in the data set on A549 xenograft [1] was “best inhibition followed by H3”. In the data set with A549 xenograft [3], the average tumor weights is 266±22; the “tumor growth inhibition vs PBS and M31 controls” value was “most significant tumor growth inhibition”. For the same molecule, in the data set with native HDGF [4], the “binding to native HDGF” value is “ability to immunoprecipitate HDGF”. The “antibody distribution in the animals including tumors” value in data set [5] (fluorescence-labeled antibody, 12 h after i.p. injection, nude mice) is “evenly distributed”. Moreover, the “antibody localization in tumor tissue (anti-mouse IgG staining)” value in data set [5] is on record as “entered into the cytoplasmic compartment of some tumor cells”. The “detection of HDGF on Western blots” value in the data set with HDGF [6] is “did not detect HDGF”. The “cellular HDGF pulled down by immunoprecipitation” value in the data set with HDGF [9] is “over 90%”. In the data set with "MiaPaca-2" line (M109), the tumor growth inhibition entry is on record as “better tumor growth inhibition”. Moreover, in the data set with tumor microvessels, the “numbers of microvessels in the tumors” value is listed as “substantially reduced numbers of microvessels” and the “size of the microvessels in the tumors” value was “stronger role in reducing the size”. Besides, the “liquidized central part of tumor (hollow effect)” value in data set [7] is listed as “developed liquidized central part”.
